Drawing on article PMC9201815, “Rapid Quantification of C. difficile Glutamate Dehydrogenase and Toxin B (TcdB) with a NanoBiT Split-Luciferase Assay” (Analytical Chemistry, 2022), this text covers Kd, koff and kon for 3 molecules.

In general, Kd refers to a measure of binding affinity in units of concentration. The low end stands for higher affinity, the high end for lower affinity. In general, koff refers to the rate constant with which the complex falls apart. One may read the kon as a measure of how fast the partners come together. Read a low kon as slower complex formation.

Experiment [1] addresses inactivated toxoid B (TxB) (C. difficile, inactivated toxoid (how it was inactivated is not stated)). Kind of experiment: SPR. The following applies: both partners purified.
A further experiment addresses Affimer 4. Kind of experiment: SPR; biotinylated Affimer/nanobody immobilised on a streptavidin chip, titrated with serial dilutions of analyte; fit to 1:1 Langmuir model. On the technique in general: In SPR one partner is held on a chip, and binding of the other changes the refractive index at the surface.

Sequence of Affimer 4 (main, as listed by the source): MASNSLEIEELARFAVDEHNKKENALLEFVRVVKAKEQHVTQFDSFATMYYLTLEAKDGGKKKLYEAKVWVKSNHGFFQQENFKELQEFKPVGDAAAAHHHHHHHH

B1: Nanobody E3 (VHH)
chain: QVQLVESGGGLVQTGGSLRLSCASSGSIAGFETVTWSRQAPGKSLQWVASMTKTNNEIYSDSVKGRFIISRDNAKNTVYLQMNSLKPEDTGVYFCKGPELRGQGIQVTVSS
notes: also called TcdB nanobody E3
In experiment [1], B1 came in with a Kd of 2.5 nM, a koff of 0.00025 s⁻¹ and a kon of 100000 M⁻¹ s⁻¹.

B2: C. difficile glutamate dehydrogenase (GDH) (enzyme)
chain: MSGKDVNVFEMAQSQVKNACDKLGMEPAVYELLKEPMRVIEVSIPVKMDDGSIKTFKGFRSQHNDAVGPTKGGIRFHQNVSRDEVKALSIWMTFKCSVTGIPYGGGKGGIIVDPSTLSQGELERLSRGYIDGIYKLIGEKVDVPAPDVNTNGQIMSWMVDEYNKLTGQSSIGVITGKPVEFGGSLGRTAATGFGVAVTAREAAAKLGIDMKKAKIAVQGIGNVGSYTVLNCEKLGGTVVAMAEWCKSEGSYAIYNENGLDGQAMLDYMKEHGNLLNFPGAKRISLEEFWASDVDIVIPAALENSITKEVAESIKAKLVCEAANGPTTPEADEVFAERGIVLTPDILTNAGGVTVSYFEWVQNLYGYYWSEEEVEQKEEIAMVKAFESIWKIKEEYNVTMREAAYMHSIKKVAEAMKLRGWY
As for B2, in the experiment with Affimer 4, the Kd turned out to be 19 nM, the koff was 0.00081 s⁻¹ and the kon came out at 44000 M⁻¹ s⁻¹.

B3: Nanobody 7F (VHH)
VHH: QVQLVESGGGLVEAGGSLRLSCVVTGSSFSTSTMAWYRQPPGKQREWVASFTSGGAIKYTDSVKGRFTMSRDNAKKMTYLQMENLKPEDTAVYYCALHNAVSGSSWGRGTQVTVSS
notes: also called TcdB nanobody 7F
In experiment [1], B3 displayed a dissociation constant Kd of 33 nM, a koff of 0.0009 s⁻¹ and a kon of 28000 M⁻¹ s⁻¹.
